Results on 1 molecule are retold here after PMC6834639.

The assay concerns the target T1, WT Aβ (1–10).
T1 chain: DAEFRHDSGY
Put plainly: native MS; IM-MS of oligomers of one Aβ fragment alone; Aβ (1–10) and Aβ (1–16) 600 µM, 10 mM NH4OAc; oligomers of many sizes seen, a printed size is the largest one. The note with it: remark: other sources report otherwise.

B1: WT Aβ (1–10) (peptide)
peptide: DAEFRHDSGY
The molecule B1 came in with a stoichiometry N of 19.
